Source: publication doi:10.1101/2022.06.16.496122

Molecular target: Trypanosoma brucei ADAT3 (full-length, His-tagged) (Trypanosoma brucei)
Assay: cryo-EM structure

**Q.** For “Trypanosoma brucei ADAT2 (full-length, A87G/C117S) (enzyme)”, which stoichiometry N is on record?
**A.** Its stoichiometry N is 1.
